# Measured values published in patent US20100316642A1, “COMPLEXES OF GRP94 WITH HUMAN IMMUNOGLOBULIN G” (priority 2007, published 2010).
# B1: Grp94: Glucose-regulated protein 94, native, purified from the microsomal fraction of rat hepatocytes (protein, UniProt Q66HD0 22-804, looked up)
# Endoplasmin: DDEVDVDGTVEEDLGKSREGSRTDDEVVQREEEAIQLDGLNASQIRELREKSEKFAFQAEVNRMMKLIINSLYKNKEIFLRELISNASDALDKIRLISLTDENALAGNEELTVKIKCDREKNLLHVTDTGVGMTREELVKNLGTIAKSGTSEFLNKMTEAQEDGQSTSELIGQFGVGFYSAFLVADKVIVTSKHNNDTQHIWESDSNEFSVIADPRGNTLGRGTTITLVLKEEASDYLELDTIKNLVRKYSQFINFPIYVWSSKTETVEEPLEEDETAQEEKEEADDEAAVEEEEEEKKPKTKKVEKTVWDWELMNDIKPIWQRPSKEVEEDEYKAFYKSFSKESDDPMAYIHFTAEGEVTFKSILFVPTSAPRGLFDEYGSKKSDYIKLYVRRVFITDDFHDMMPKYLNFVKGVVDSDDLPLNVSRETLQQHKLLKVIRKKLVRKTLDMIKKIADEKYNDTFWKEFGTNIKLGVIEDHSNRTRLAKLLRFQSSHHSTDITSLDQYVERMKEKQDKIYFMAGSSRKEAESSPFVERLLKKGYEVIYLTEPVDEYCIQALPEFDGKRFQNVAKEGVKFDESEKSKESREATEKEFEPLLNWMKDKALKDKIEKAVVSQRLTESPCALVASQYGWSGNMERIMKAQAYQTGKDISTNYYASQKKTFEINPRHPLIRDMLRRVKEDEDDKTVMDLAVVLFETATLRSGYLLPDTKAYGDRIERMLRLSLNIDPEAQVEEEPEEEPEDTTEDTTDDSEQDEEETDAGAEEEEEEQETEKEPTEKDEL
# Legend:
# [1] = test system: human umbilical vein endothelial cells (HUVECs); experiment: Cell growth stimulation of HUVECs (cell count in hemocytometer); assay type: cell-based; details: U0126 10 μM alone, no Grp94, control without inhibitor (DMSO 0.1%) 98.01±5.4×10^3
# Protocol: Cells were grown in endothelial basal medium supplemented with fetal bovine serum (FBS) at 10%, and after a starving period of 8-10 h in absence of FBS, fresh serum-free medium was added (2 ml) together with Grp94 (at the final concentration of 1 and 10 ng/ml) both alone and with IgG (at the molar ratio of 1:1). After an incubation period of 20 h, the medium was collected and cells detached from duplicate wells and counted in a hemocytometer. Cell viability was evaluated with the trypan blue dye exclusion method; trypan blue only enters cells with an altered, but not intact membrane permeability.
# Histograms in FIG. 2(B) represent the number of cells grown with Grp94 (10 ng/ml), both alone and in the presence of IgG, with the addition of the inhibitor U0126 (10 μM, final concentration). […] The inhibitor was added to cell cultures 30 min before the addition of Grp94, both alone and with IgG. […] Asterisks on bars mark statistically significant (*, p<0.05) and highly significant (**, p<0.001) differences with respect to control values (empty bars).
# HUVECs [2] = experiment: Microscopic evaluation of morphogenic (angiogenic) transformation of HUVECs; assay type: cell-based, human
# [3] = test system: HSP90 and HSP70 expression in HUVECs; experiment: Expression of HSP90, HSP70 and IgG in HUVEC lysates and conditioned media (SDS-PAGE, Western blotting); assay type: cell-based, human
# Protocol: 2. Effects on the expression of HSP70 and HSP90 in HUVECs: hereafter are described in detail the method and results shown in FIG. 3(A) referred to experiments performed after 20-h incubation of cells in the presence of Grp94 (10 ng/ml), both alone and with IgG, with and without the inhibitor U0126 (10 μM, final concentration). Cells were detached from wells and treated with lysis buffer (50 mM Tris-HCl, pH 8.9, 5 mM EDTA, 380 mM glycine, 2% SDS, 7 mM β-mercaptoethanol). Whole cell lysates were analyzed in SDS-PAGE (10% polyacrylamide gel) followed by Western blotting with anti-HSP90, anti-HSP70 and anti-human IgG Abs. The same quantity of proteins (determined by means of densitometric analysis made on common bands in any lysates) was loaded in each well in SDS-PAGE. Arrows on left mark bands in the lanes that are also shared by nearby lanes on right. […] It is worth noting that band positive for IgG appear at the same masses at which also focuses HSP70. In the presence of the inhibitor, the HSP90 expression is blocked, whereas that of both HSP70 and IgG is still evident in cells after treatment, especially in bands at higher molecular masses. Western blotting for each type of protein is representative of at least three other experiments made on the same samples on different occasions.
# The analysis made on cell lysates was also conducted on conditioned media (collected from the same cell cultures on which lysates were obtained, as reported above). Media were collected from duplicate wells, centrifuged for removing cell debris, extensively dialyzed, lyophilized and submitted to electrophoresis analysis followed by Western blotting with anti-HSP90, anti-HSP70 and anti-human IgG Abs (as above, for cell lysates). […] In particular, it was observed that the secreted species of HSP90, HSP70 and IgG were only those induced by treatments with Grp94, especially in complexes with IgG.
# HUVECs [4] = experiment: Confocal microscopy of HSP90/HSP70 fluorescence and cytoskeleton changes in HUVECs; assay type: cell-based, human; details: Grp94 10 ng/ml, serum-free medium
# Protocol: Cells were cultured in serum-free medium both without any treatment (control, panels a) and with the addition of both Grp94 alone (10 ng/ml) (panels b) and Grp94 in complexes with IgG (panels c), as specified above. In FIG. 4(A) is shown the fluorescence (evidenced with confocal microscopy) due to anti-HSP90 Abs reacting with HSP90 in both control and treated HUVECs (panels a, b and c on left). Intensity of the fluorescence is increased in cells treated with Grp94, especially when present in complexes with IgG. […] Of interest is the co-location of HSP90 with actin, mostly evident in podosomes, underlined by the pale blue fluorescence due to merging of the green and blue fluorescence of HSP90 and actin, respectively (panels on right). In FIG. 4(B) is shown the fluorescence due to HSP70 following the addition to cell cultures of anti-HSP70 Abs, similarly to what reported for anti-HSP90 Abs. […] Arrow heads in both (A) and (B) mark some of the most significant structural changes in the cell cytoskeleton (inserts in panels on right).
# [5] = test system: human peripheral blood mononuclear cells (PBMCs); experiment: Growth stimulation of PBMCs (cell count after 2-week culture); assay type: cell-based; details: 2-week incubation, no FBS, control 10% FBS
# Protocol: 4. Effects of stimulation of PBMC: PBMC were obtained from blood using the method of the Ficoll-Paque gradient. A sample of about 25 ml of buffy-coat (concentrated sample of red blood cells, white blood cells and platelets) was obtained after centrifugation of 250 ml of blood. The buffy-coat, containing about 300-600 million of PBMCs (1 million/ml of blood sample), was put in a 50-ml Falcon test-tube with the addition of a volume of RPMI (Roswell Park Memorial Institute) medium equal to half of the buffy-coat volume. The first step of PBMC separation included the preparation of the Ficoll solution in aliquots kept in the dark at +4° C. Five ml of buffy-coat were dropped on 4 ml of Ficoll solution put in Falcon test-tube (14-ml capacity). After centrifugation at 600×g for 30 min in swinging buket rotor, the white disk of PBMCs stratified between the upper […] (red blood cells instead precipitate to the bottom), and was thus recovered with a Pasteur pipette. The fractions of PBMCs were mixed together in a Falcon test-tube (50-ml capacity) and fresh RPMI medium added up to the volume of 50 ml. After centrifugation at 600×g for 15 min, the supernatant was discarded and the pellet washed twice by adding the medium up to the volume of 50 ml, each washing being followed by centrifugation at 300×g for 10 min. After the last centrifugation, the pellet was re-suspended with RPMI medium up to 50 ml of volume.
# The count of PBMCs was made on a diluted solution of PBMCs, mixing 50 μl of the starting solution in 250 μl (final volume) of Turk dye solution (in acetic acid). The cell count was made in a common cell-counting chamber.
# In experiments aimed at measuring IgG concentrations in the medium, PBMCs are seeded at the concentration of 2×10^6 cells/ml (1 ml/well) in a 24- or 48-well flat-bottomed plate (wells of 2 and 1 ml, respectively) incubated at 37° C., in a humidified 95% air, 5% CO2 atmosphere for 2 weeks. […]
# PBMC = experiment: IgG production from PBMC (anti-human Ig-I125 radioimmunoassay of supernatants); assay type: cell-based; details: Grp94 10 ng/ml (maximum of stimulation), 2-week incubation at 37° C.
# Protocol: In experiments aimed at measuring IgG concentrations in the medium, PBMCs are seeded at the concentration of 2×10^6 cells/ml (1 ml/well) in a 24- or 48-well flat-bottomed plate (wells of 2 and 1 ml, respectively) incubated at 37° C., in a humidified 95% air, 5% CO2 atmosphere for 2 weeks. Controls included triplicate wells containing medium only (or the diluent in which substances were dissolved, where appropriate), puromicine (100 μg/ml, final concentration, useful for detecting background Abs, i.e., Abs already present in circulation non specifically bound to blood cells), and a standard mitogen (pockweed mitogen, PWM) diluted 1:50 (v:v). Treatment included the addition of Grp94 (at final concentrations of 1, 10 and 100 ng/ml), both alone and in complexes with IgG, and IgG alone (at the final concentration necessary to give a 1:1 molar ratio with Grp94), after each solution was incubated at 37° C. for 1 h.
# 5. IgG production from PBMC: on a 96-well (200 μl each) flat-bottomed Optiplate (Packard) were laid down 50 μl of anti-human IgG Abs (5 μg/ml in NaHCO3/Na2CO3 buffer, ph 9.6) that were allowed to dry out overnight. Afterwards, 200 μl of PBS with 3% BSA and 0.02% NaN3 were added to saturate aspecific binding sites in Abs. […] The plate was then dried after additional washings and radioactivity measured after the addition of 30 μl of Microscint 20 in each well. […]
# human IgG = experiment: Dot-blot analysis of Grp94 binding to human IgG; details: human IgG 4 μg/ml, 8 h room temperature
# Protocol: In dot-blot experiments, strips of PVDF membrane were rinsed first in methanol (1 min) and then in de-ionized water (1 min) and let partially dry (3 min). Dots were made with 10 μl of Grp94 (2 μg). Grp94 solution (in bi-distilled water) was used as such (without any treatment) or after boiling for 2 min. Dots with each of the Grp94 solutions (both untreated and boiled) were made in duplicate on membrane strips that were incubated in both absence (control, in TBS only) and presence of human IgG (4 μg/ml) for 8 h at room temperature. Membrane strips were then incubated overnight with a blocking solution of BSA (1%) and Tween (0.2%), followed by washings with TBS (for 1 h) and a further incubation with primary sheep anti-human IgG Abs (2.5 μg/ml). After repeated washings with TBS (for 1 h), membrane strips were then immersed in the solution of secondary Abs (donkey anti-sheep IgG Abs) for 1 h and probed with the detection solution. Control strips with dots of Grp94 incubated with TBS alone were probed with both primary and secondary Abs, and with secondary Abs alone.
Molecule,number of control cells in presence of the inhibitor [1],morphology of HUVECs with inhibitor on its own (HUVECs [2]; U0126 10 μM alone),HSP90 expression in treated HUVECs in the presence of the inhibitor ([3]; U0126 10 μM added to cells treated with Grp94 10 ng/ml alone or with IgG),"morphogenic transformation of HUVECs (HUVECs [2]; Grp94 10 ng/ml, alone or with IgG 1:1, not changed significantly by U0126, versus cobblestone morphology of control)","HSP90, HSP70 and IgG in conditioned media (Western blotting) ([3]; HUVEC media after 20-h treatment, Grp94 10 ng/ml, no positivity in control media, mostly in complexes with IgG)","HSP70 in whole cell lysates (Western blotting) ([3]; HUVECs, Grp94 10 ng/ml, 20-h incubation, constitutive form in any lysates)","HSP90 in whole cell lysates (Western blotting) ([3]; HUVECs, Grp94 10 ng/ml, 20-h incubation, not present in control lysates)",intensity of HSP90 fluorescence (confocal microscopy) (HUVECs [4]; especially in complexes with IgG),fluorescence of HSP70 (confocal microscopy) (HUVECs [4]; versus control),increase in PBMC number with respect to the control value ([5]; Grp94 1 ng/ml),increase in PBMC number with respect to the control value ([5]; Grp94 10 ng/ml),increase in PBMC number with respect to the control value ([5]; Grp94 100 ng/ml),IgG production (radioactivity) (PBMC),binding to IgG (dot-blot) (human IgG; Grp94 after boiling for 2 min),binding to IgG (dot-blot) (human IgG; untreated Grp94 2 μg dots)
"N#CC(=C(/N)Sc1ccccc1N)/C(C#N)=C(\N)Sc1ccccc1N [U0126, reference compound]",80.38±4.02×10^3,pre-angiogenic transformation,blocked,–,–,–,–,–,–,–,–,–,–,–,–
B1,–,–,–,angiogenic modifications,positive immune reaction,additional bands referred to inducible species of HSP70,positivity,increased,increased,5%,63%,47%,316 cpm,did not bind IgG any longer,stable binding
